Test results: patent publication CN106117360A

Molecular target: CD3 on Jurkat cells
Assay: flow cytometry, culture supernatant on Jurkat cells (negative control sdAb)

How did the MFI turn out when NC-sdAb(相同形式的非相关性sdAb) (VHH) was run?
The MFI was 115 MFI.
